Measured values from patent publication US20240254201A1.

Molecular target: EBOV GP on EBOV-eGFP-Mayinga authentic virus (Ebola virus (EBOV), Mayinga) (UniProt Q05320)
Experiment: cell-based or functional assay

EBOV GP on EBOV-eGFP-Mayinga authentic virus (Ebola virus (EBOV), Mayinga), sequence (Q05320 33-676 limits assumed): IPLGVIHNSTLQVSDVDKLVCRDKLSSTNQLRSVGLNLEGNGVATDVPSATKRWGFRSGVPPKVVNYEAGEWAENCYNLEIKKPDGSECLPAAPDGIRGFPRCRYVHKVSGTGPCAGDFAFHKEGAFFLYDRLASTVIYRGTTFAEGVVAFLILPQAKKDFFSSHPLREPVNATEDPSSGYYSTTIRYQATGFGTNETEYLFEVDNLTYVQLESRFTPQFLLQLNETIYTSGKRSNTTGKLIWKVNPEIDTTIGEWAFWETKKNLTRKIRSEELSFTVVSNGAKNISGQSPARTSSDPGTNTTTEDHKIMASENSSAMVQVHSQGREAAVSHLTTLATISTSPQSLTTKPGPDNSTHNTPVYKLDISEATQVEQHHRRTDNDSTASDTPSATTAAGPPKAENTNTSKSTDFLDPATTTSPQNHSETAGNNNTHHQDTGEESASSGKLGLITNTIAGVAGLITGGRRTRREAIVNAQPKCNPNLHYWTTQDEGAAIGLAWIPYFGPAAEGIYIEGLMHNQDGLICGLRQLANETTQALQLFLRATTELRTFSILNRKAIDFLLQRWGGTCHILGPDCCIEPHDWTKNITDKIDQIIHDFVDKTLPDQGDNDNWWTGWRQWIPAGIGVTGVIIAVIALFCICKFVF

CA45 (antibody) gave an IC50, EBOV-eGFP-Mayinga authentic virus neutralization test of 8.51 µg/mL and an IC90, EBOV-eGFP-Mayinga authentic virus neutralization test of 13 µg/mL.
